Experimental findings from publication PMC9674223, “Voltage-sensor movements in the Eag Kv channel under an applied electric field” (Proceedings of the National Academy of Sciences of the …, 2022) are described below.

Series [1] concerns the molecule itself. Put plainly: cryo-EM structure; Eag1-CaM complex purified with Ca2+, reconstituted into 90:5:5 POPC:POPG:cholesterol liposomes with 300 mM KCl; polarized with valinomycin and exchange of the external solution to 300 mM NaCl (a smaller dataset on unpolarized vesicles too); 10 mM Tris pH 8.0.
Series [2] deals with T1, vertebrate calmodulin (CaM) (vertebrate, UniProt P0DP23 1-149).
T1 construct: vertebrate calmodulin, expressed from a separate vector without a tag; source: HEK293S GnTI- cells infected with rEag1 and CaM baculoviruses, co-purified with rEag1 in the presence of Ca2+
The description is as above. The settings on record: both partners purified.

B1: rat Eag1 with residues 773 to 886 truncated (rEag1) (natural protein, UniProt Q63472 1-962, looked up)
chain: MTMAGGRRGLVAPQNTFLENIVRRSNDTNFVLGNAQIVDWPIVYSNDGFCKLSGYHRAEVMQKSSACSFMYGELTDKDTVEKVRQTFENYEMNSFEILMYKKNRTPVWFFVKIAPIRNEQDKVVLFLCTFSDITAFKQPIEDDSCKGWGKFARLTRALTSSRGVLQQLAPSVQKGENVHKHSRLAEVLQLGSDILPQYKQEAPKTPPHIILHYCVFKTTWDWIILILTFYTAILVPYNVSFKTRQNNVAWLVVDSIVDVIFLVDIVLNFHTTFVGPAGEVISDPKLIRMNYLKTWFVIDLLSCLPYDVINAFENVDEGISSLFSSLKVVRLLRLGRVARKLDHYIEYGAAVLVLLVCVFGLAAHWMACIWYSIGDYEIFDEDTKTIRNNSWLYQLALDIGTPYQFNGSGSGKWEGGPSKNSVYISSLYFTMTSLTSVGFGNIAPSTDIEKIFAVAIMMIGSLLYATIFGNVTTIFQQMYANTNRYHEMLNSVRDFLKLYQVPKGLSERVMDYIVSTWSMSRGIDTEKVLQICPKDMRADICVHLNRKVFKEHPAFRLASDGCLRALAMEFQTVHCAPGDLIYHAGESVDSLCFVVSGSLEVIQDDEVVAILGKGDVFGDVFWKEATLAQSCANVRALTYCDLHVIKRDALQKVLEFYTAFSHSFSRNLILTYNLRKRIVFRKISDVKREEEERMKRKNEAPLILPPDHPVRRLFQRFRQQKEARLAAERGGRDLDDLDVEKGNALTDHTSANHSLVKASVVTVRESPATPVSFYPIPEQTLQATVLEVKHELKEDIKALNAKMTSIEKQLSEILRILMSRGSSQSPQDTCEVSRPQSPESDRDIFGAS
notes: rat Eag1 voltage-dependent K+ channel; construct corresponding to rat Eag1 with residues 773 to 886 truncated; Tetrameric channel (C4 symmetric up map); The C-terminal GFP-His6 tag was linked by a preScission protease site and removed; also called Eag channel; Eag Kv channel; not shown: GFP, C-terminal, cleaved; His6, C-terminal, cleaved
As to B1, the binding result in series [1] and in series [2] was “binds” each time.
